Measurements as given in patent US20230295310A1 (ABCELLERA BIOLOGICS, published 2023).
Positions count from the first letter of the chain named.

B1: GOMP001_bsAb_022 (bispecific antibody, human IgG1, kappa, L234A L235A)
heavy 1: QMLLVESGGGVVQPGRSLTLSCAASGFTFRSYGMHWVRKAPGRGLEWVAIIWYDGSTEYYADEVKGRFTISRANSKNMLYLQMNSLRAEDTAVYYCAAFDYTNSFDIWGQGTMVTVSSASTKGPSVFPLAPSSKSTSGGTAALGCLVADYFPEPVTVSWNSGALTSGVHTFPAVLQSSGLYSLSSVVTVPSSSLGTQTYICNVNHKPSNTKVDEKVEPKSCDKTHTCPPCPAPEAAGGPSVFLFPPKPKDTLMISRTPEVTCVVVDVSHEDPEVKFNWYVDGVEVHNAKTKPREEQYNSTYRVVSVLTVLHQDWLNGKEYKCKVSNKALPAPIEKTISKAKGQPREPQVYTLPPSREEMTDNQVSLTCLVKGFYPSDIAVEWESNGQPENNYKTTPPVLMSDGSFFLASKLTVDKSRWQQGNVFSCSVMHEALHNHYTQKSLSLSPG
light 1: RIVVTQTPLSSPVTLGQPASISCRSSQRFVHSDGNTYLSWLQDRPGQPPRLLIYKISNRISGVPDRFSGSGAGTDFKLKISRVEAEDVGIYYCMQATQFPYTFGQGTKLEIKRTVAAPSVFIFPPSDKQLKSGTARVVCLLNNFYPREAKVQWKVDNALQSGNSQESVTEQDSKDSTYSLSSTLTLSKADYEKHKVYACEVTHQGLSSPVTKSFNRGEC
heavy 2: QVQLVQSGAEVKKPGASVKVSCKASGYTFTSHWMHWVRYAPGQGLEWIGEFNPSNGRTNYNEKFKSKATMTVDTSTNTAYMELSSLRSEDTAVYYCASRDYDYDGRYFDYWGRGTLVTVSSASTKGPSVFPLAPSSKSTSGGTAALGCLVKDYFPEPVTVSWNSGALTSGVHTFPAVLQSSGLYSLSSVVTVPSSSLGTQTYICNVNHKPSNTKVDKKVEPKSCDKTHTCPPCPAPEAAGGPSVFLFPPKPKDTLMISRTPEVTCVVVDVSHEDPEVKFNWYVDGVEVHNAKTKPREEQYNSTYRVVSVLTVLHQDWLNGKEYKCKVSNKALPAPIEKTISKAKGQPRRPRVYTLPPSREEMTKNQVSLVCLVKGFYPSDIAVEWESNGQPENNYKTTPPVLDSDGSFFLYSVLTVDKSRWQQGNVFSCSVMHEALHNHYTQKSLSLSPG
light 2: DIQMTQSPSSLSASVGDRVTITCSASSSVTYMYWYQRKPGDAPKLLIYDTSNLASGVPSRFSGSGSGTDYTFTISSLQPEDIATYYCQQWSSHIFTFGQGTKVEIKRTVAAPSVFIFPPSDEQLKSGTASVVCLLNNFYPREAKVQWKVDNALQSGNSQESVTEQDSKDSTYSLSSTLTLSKADYEKHKVYACEVTHQGLSSPVTKSFNRGEC
B2: GOMP001_bsAb_023 (bispecific antibody, human IgG1, kappa, L234A L235A)
heavy 1: QVQLVQSGAEVKKPGASVKVSCKASGYTFTSHWMHWVRKAPGQGLEWIGEFNPSNGRTNYNEEFKSKATMTVDTSTNTAYMELSSLRSEDTAVYYCASRDYDYDGRYFDYWGQGTLVTVSSASTKGPSVFPLAPSSKSTSGGTAALGCLVADYFPEPVTVSWNSGALTSGVHTFPAVLQSSGLYSLSSVVTVPSSSLGTQTYICNVNHKPSNTKVDEKVEPKSCDKTHTCPPCPAPEAAGGPSVFLFPPKPKDTLMISRTPEVTCVVVDVSHEDPEVKFNWYVDGVEVHNAKTKPREEQYNSTYRVVSVLTVLHQDWLNGKEYKCKVSNKALPAPIEKTISKAKGQPREPQVYTLPPSREEMTDNQVSLTCLVKGFYPSDIAVEWESNGQPENNYKTTPPVLMSDGSFFLASKLTVDKSRWQQGNVFSCSVMHEALHNHYTQKSLSLSPG
light 1: B1 light 2 with D1R, R37D, D41K, E122K, S130R
heavy 2: QGQLVESGGGVVQPGRSLRLSCEASGFTFRSYGMHWVRYPPGKGLEWVAIIWYDGGKKYYGDRVKGRFTISRDNPKNTLYLQMNSLRPEDTAVYYCMAYDYSNGFDIWGRGTMVTVSSASTKGPSVFPLAPSSKSTSGGTAALGCLVKDYFPEPVTVSWNSGALTSGVHTFPAVLQSSGLYSLSSVVTVPSSSLGTQTYICNVNHKPSNTKVDKKVEPKSCDKTHTCPPCPAPEAAGGPSVFLFPPKPKDTLMISRTPEVTCVVVDVSHEDPEVKFNWYVDGVEVHNAKTKPREEQYNSTYRVVSVLTVLHQDWLNGKEYKCKVSNKALPAPIEKTISKAKGQPRRPRVYTLPPSREEMTKNQVSLVCLVKGFYPSDIAVEWESNGQPENNYKTTPPVLDSDGSFFLYSVLTVDKSRWQQGNVFSCSVMHEALHNHYTQKSLSLSPG
light 2: DIVMTQTPLSSPVTLGQPASISCRSSQSFVHSDGSTYLSWLQRRPGDPPRLLIYKISNRFSGVPDRFSGRGAGTDFTLKISRVEAEDVGIYYCMQNTQFPYTFGQGTKLEIKRTVAAPSVFIFPPSDEQLKSGTASVVCLLNNFYPREAKVQWKVDNALQSGNSQESVTEQDSKDSTYSLSSTLTLSKADYEKHKVYACEVTHQGLSSPVTKSFNRGEC
B3: GOMP001_bsAb_024 (bispecific antibody, human IgG1, kappa, L234A L235A)
heavy 1: QGQLVESGGGVVQPGRSLRLSCEASGFTFRSYGMHWVRKPPGKGLEWVAIIWYDGGKKYYGDEVKGRFTISRDNPKNTLYLQMNSLRPEDTAVYYCMAYDYSNGFDIWGQGTMVTVSSASTKGPSVFPLAPSSKSTSGGTAALGCLVADYFPEPVTVSWNSGALTSGVHTFPAVLQSSGLYSLSSVVTVPSSSLGTQTYICNVNHKPSNTKVDEKVEPKSCDKTHTCPPCPAPEAAGGPSVFLFPPKPKDTLMISRTPEVTCVVVDVSHEDPEVKFNWYVDGVEVHNAKTKPREEQYNSTYRVVSVLTVLHQDWLNGKEYKCKVSNKALPAPIEKTISKAKGQPREPQVYTLPPSREEMTDNQVSLTCLVKGFYPSDIAVEWESNGQPENNYKTTPPVLMSDGSFFLASKLTVDKSRWQQGNVFSCSVMHEALHNHYTQKSLSLSPG
light 1: B2 light 2 with D1R, R43D, D47Q, E128K, S136R
heavy 2: B1 heavy 2
light 2: B1 light 2
B4: GOMP001_bsAb_029 (bispecific antibody, human IgG1, kappa, L234A L235A)
heavy 1: B2 heavy 1
light 1: B1 light 2 with D1R, R37D, D41K, E122K, S130R
heavy 2: QVQLVQSGAEVKKPGASVKVSCKASGYTVTGYYMHWVRYAPGQGLEWMGWINPNSGGTNFAQRFQGRVTMTRDTSISTFYMDLNRLRSDDTAVYYCARGGAPVSYWFFDLWGRGTLVTVSSASTKGPSVFPLAPSSKSTSGGTAALGCLVKDYFPEPVTVSWNSGALTSGVHTFPAVLQSSGLYSLSSVVTVPSSSLGTQTYICNVNHKPSNTKVDKKVEPKSCDKTHTCPPCPAPEAAGGPSVFLFPPKPKDTLMISRTPEVTCVVVDVSHEDPEVKFNWYVDGVEVHNAKTKPREEQYNSTYRVVSVLTVLHQDWLNGKEYKCKVSNKALPAPIEKTISKAKGQPRRPRVYTLPPSREEMTKNQVSLVCLVKGFYPSDIAVEWESNGQPENNYKTTPPVLDSDGSFFLYSVLTVDKSRWQQGNVFSCSVMHEALHNHYTQKSLSLSPG
light 2: DIQMTQSPSSLSASVGDRVTITCRASQSISRYLNWYQRKPGDAPKVLIYNTSSLKSGVPSRFSGSGSGTDFTLTISSLQPEDFGTFYCQQSHSTPFTFGPGTKVDIKRTVAAPSVFIFPPSDEQLKSGTASVVCLLNNFYPREAKVQWKVDNALQSGNSQESVTEQDSKDSTYSLSSTLTLSKADYEKHKVYACEVTHQGLSSPVTKSFNRGEC
B5: GOMP001_bsAb_030 (bispecific antibody, human IgG1, kappa, L234A L235A)
heavy 1: QVQLVQSGAEVKKPGASVKVSCKASGYTVTGYYMHWVRKAPGQGLEWMGWINPNSGGTNFAQEFQGRVTMTRDTSISTFYMDLNRLRSDDTAVYYCARGGAPVSYWFFDLWGRGTLVTVSSASTKGPSVFPLAPSSKSTSGGTAALGCLVADYFPEPVTVSWNSGALTSGVHTFPAVLQSSGLYSLSSVVTVPSSSLGTQTYICNVNHKPSNTKVDEKVEPKSCDKTHTCPPCPAPEAAGGPSVFLFPPKPKDTLMISRTPEVTCVVVDVSHEDPEVKFNWYVDGVEVHNAKTKPREEQYNSTYRVVSVLTVLHQDWLNGKEYKCKVSNKALPAPIEKTISKAKGQPREPQVYTLPPSREEMTDNQVSLTCLVKGFYPSDIAVEWESNGQPENNYKTTPPVLMSDGSFFLASKLTVDKSRWQQGNVFSCSVMHEALHNHYTQKSLSLSPG
light 1: B4 light 2 with D1R, R38D, D42K, E123K, S131R
heavy 2: B1 heavy 2
light 2: B1 light 2

Biological target: EGFR on HeLa cells (UniProt P00533 25-1210, limits assumed)
Experiment: cell-based or functional assay

In order of rising Max killing %:
1. B2  27.5%
2. B1  60.6%
3. B3  72.5%
4. B4  81.1%
5. B5  92.6%

In order of falling “X… HeLa EC50” value:
1. B3  895 pM
2. B1  478 pM
3. B4  136 pM
4. B5  45.4 pM
